The text below walks through data of paper PMC9723946 (The Journal of Biological Chemistry, 2022).

Read-outs that look alike come from different tables or passages of the source. Where no end group is shown, it is not given here. Ahx = NCCCCCC(=O)O

Experiment [1] concerns the target T1, His-tagged G3BP1 NTF2 (peptide arrays) (human, UniProt Q13283 1-139). The experiment is described as follows: peptide or protein array.
The target in experiment [2] is T1, His-tagged G3BP1 NTF2 (peptide arrays). The experiment is described as follows: peptide or protein array. This is another data set of the same source.
Experiment [3] has as its target G3BP1 NTF2-like domain (1-139) F15/33W (human, UniProt Q13283 1-139, F15W | F33W). The experiment is described as follows: fluorescence polarisation.
Experiment [4] concerns the target G3BP1 NTF2-like domain (1-139) F124W (human, UniProt Q13283 1-139, F124W). The experiment is described as follows: fluorescence polarisation. (In general: Fluorescence polarisation rises when a labelled molecule tumbles more slowly, as on binding a larger partner.)
The target in experiment [5] is G3BP1 NTF2-like domain (1-139) F15/124W (human, UniProt Q13283 1-139, F15W | F124W). The experiment is described as follows: fluorescence polarisation.
In experiment [6] the target is G3BP1 NTF2-like domain (1-139), WT (human, UniProt Q13283 1-139). The experiment is described as follows: fluorescence polarisation.
Experiment [7] concerns the target G3BP1 NTF2-like domain (1-139) F15W (human, UniProt Q13283 1-139, F15W). The experiment is described as follows: fluorescence polarisation.
The target of experiment [8] is G3BP1 NTF2-like domain (1-139) F33/124W (human, UniProt Q13283 1-139, F33W | F124W). The experiment is described as follows: fluorescence polarisation.
Experiment [9] deals with G3BP1 NTF2-like domain (1-139) F33W (human, UniProt Q13283 1-139, F33W). The experiment is described as follows: fluorescence polarisation.
Experiment [10] addresses G3BP1 NTF2-like domain (1-139) TripleW (F15W/F33W/F124W) (human, UniProt Q13283 1-139, F15W | F33W | F124W). The experiment is described as follows: fluorescence polarisation.
In experiment [11] the target is G3BP1 NTF2-like domain (1-139) S38G (human, UniProt Q13283 1-139, S38G). The experiment is described as follows: fluorescence polarisation.
The target in experiment [12] is G3BP1 NTF2-like domain (1-139) S38A (human, UniProt Q13283 1-139, S38A). The experiment is described as follows: fluorescence polarisation.
The target of experiment [13] is G3BP1 NTF2-like domain (1-139) S38T (human, UniProt Q13283 1-139, S38T). The experiment is described as follows: fluorescence polarisation.
Sequence of G3BP1 NTF2-like domain (1-139) S38T (Q13283 1-139 S38T): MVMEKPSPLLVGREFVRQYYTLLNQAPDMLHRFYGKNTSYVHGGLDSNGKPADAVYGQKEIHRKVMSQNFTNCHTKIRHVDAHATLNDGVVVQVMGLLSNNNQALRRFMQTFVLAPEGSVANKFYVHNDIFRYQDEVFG

T1 sequence (Q13283 1-139): as the sequence (Q13283 1-139 S38T) above, with T38S counted along it
Sequence of G3BP1 NTF2-like domain (1-139) F33/124W (Q13283 1-139 F33W/F124W): as the sequence (Q13283 1-139 S38T) above, with F33W, T38S, F124W counted along it
Sequence of G3BP1 NTF2-like domain (1-139) F124W (Q13283 1-139 F124W): as the sequence (Q13283 1-139 S38T) above, with T38S, F124W counted along it
Sequence of G3BP1 NTF2-like domain (1-139) TripleW (F15W/F33W/F124W) (Q13283 1-139 F15W/F33W/F124W): as the sequence (Q13283 1-139 S38T) above, with F15W, F33W, T38S, F124W counted along it
Sequence of G3BP1 NTF2-like domain (1-139) F15/33W (Q13283 1-139 F15W/F33W): as the sequence (Q13283 1-139 S38T) above, with F15W, F33W, T38S counted along it
Sequence of G3BP1 NTF2-like domain (1-139) S38G (Q13283 1-139 S38G): as the sequence (Q13283 1-139 S38T) above, with T38G counted along it
Sequence of G3BP1 NTF2-like domain (1-139) F15W (Q13283 1-139 F15W): as the sequence (Q13283 1-139 S38T) above, with F15W, T38S counted along it
Sequence of G3BP1 NTF2-like domain (1-139) F15/124W (Q13283 1-139 F15W/F124W): as the sequence (Q13283 1-139 S38T) above, with F15W, T38S, F124W counted along it
Sequence of G3BP1 NTF2-like domain (1-139) F33W (Q13283 1-139 F33W): as the sequence (Q13283 1-139 S38T) above, with F33W, T38S counted along it
Sequence of G3BP1 NTF2-like domain (1-139) S38A (Q13283 1-139 S38A): as the sequence (Q13283 1-139 S38T) above, with T38A counted along it
Sequence of G3BP1 NTF2-like domain (1-139), WT (Q13283 1-139): as the sequence (Q13283 1-139 S38T) above, with T38S counted along it

As for HSPQYIFGDISPDEFNQFFV [USP10 peptide F13I (SPOT array)], the binding result in [1] is listed as “binds”.

As for QGPYNFIQDSMLDFENQTLD [native Caprin1 peptide QGPYNFIQDSMLDFENQTLD (SPOT array)], the binding result in experiment [2] was “binds”.

Turning to QGPYNFFQDSMLDFENQTLD [Caprin1 peptide I373F (SPOT array)], the binding result in experiment [2] is reported as “binds”.

As for QGPYEFIQDSMLDFENQTLD [Caprin1 peptide N371E (SPOT array)], the binding result in experiment [2] is “binds”.

Consider QGPYMFIQDSMLDFENQTLD [Caprin1 peptide N371M (SPOT array)], for which, in experiment [2], the binding result is “binds”.

On to QGPYCFIQDSMLDFENQTLD [Caprin1 peptide N371C (SPOT array)], for which the binding result in [2] is “binds”.

Take QGPYKFIQDSMLDFENQTLD [Caprin1 peptide N371K (SPOT array)]: the binding result in experiment [2] is “binds”.

Turning to QGPYVFIQDSMLDFENQTLD [Caprin1 peptide N371V (SPOT array)], the binding result in experiment [2] was “binds”.

As for QGPYWFIQDSMLDFENQTLD [Caprin1 peptide N371W (SPOT array)], in experiment [2], the binding result is “binds”.

In the case of QGPFNFIQDSMLDFENQTLD [Caprin1 peptide Y370F (SPOT array)], the binding result in experiment [2] is “binds”.

Turning to QGPYRFIQDSMLDFENQTLD [Caprin1 peptide N371R (SPOT array)], in [2], the binding result is “binds”.

For QGPYNFIQDSYLDFENQTLD [Caprin1 peptide M377Y (SPOT array)], in [2], the binding result was “binds”.

For HSPQYIFGDYSPDEFNQFFV [USP10 peptide F13Y (SPOT array)], the binding result in experiment [1] is “binds”.

With QGPYHFIQDSMLDFENQTLD [Caprin1 peptide N371H (SPOT array)], in experiment [2], the binding result is “binds”.

As to QGPYSFIQDSMLDFENQTLD [Caprin1 peptide N371S (SPOT array)], the binding result in experiment [2] is “binds”.

For QGPYFFIQDSMLDFENQTLD [Caprin1 peptide N371F (SPOT array)], in [2], the binding result is “binds”.

For the molecule QGPYNFIQDSMIDFENQTLD [Caprin1 peptide L378I (SPOT array)], the binding result in experiment [2] is recorded as “binds”.

For {fluorescein-Ahx}-YNFIQDSMLDFE [Caprin1-derived dodecamer reporter peptide F*-YNFIQDSMLDFE], the Kd – broadly, the concentration at which binding is half-saturated – is 256 µM in [3]; 1.7 µM in experiment [4]; 14.4 µM in experiment [5]; 1.7 µM in [6]; 9.3 µM in experiment [7]; 133 µM in experiment [8]. The Kd came out at 79.3 µM in [9]; 240 µM in experiment [10]; 10.5 µM in [11]; 7.3 µM in [12]; 11.8 µM in [13].

Regarding QGPYYFIQDSMLDFENQTLD [Caprin1 peptide N371Y (SPOT array)], the binding result in experiment [2] is given as “binds”.

In the case of QGPYNFIQESMLDFENQTLD [Caprin1 peptide D375E (SPOT array)], in experiment [2], the binding result is reported as “binds”.

In the case of HSPQYIFGDLSPDEFNQFFV [USP10 peptide F13L (SPOT array)], the binding result in experiment [1] is on record as “binds”.

As to HSPQYIFGDWSPDEFNQFFV [USP10 peptide F13W (SPOT array)], the binding result in [1] was “binds”.

For HSPQYIFGDFSPDEFNQFFV [native USP10 peptide HSPQYIFGDFSPDEFNQFFV (SPOT array)], the binding result in experiment [1] is reported as “binds”.

As to QGPYNFLQDSMLDFENQTLD [Caprin1 peptide I373L (SPOT array)], the binding result in experiment [2] is “binds”.

QGPYQFIQDSMLDFENQTLD [Caprin1 peptide N371Q (SPOT array)]: the binding result in experiment [2] was “binds”.

As to QGPYIFIQDSMLDFENQTLD [Caprin1 peptide N371I (SPOT array)], in experiment [2], the binding result is listed as “binds”.

Turning to QGPYTFIQDSMLDFENQTLD [Caprin1 peptide N371T (SPOT array)], the binding result in [2] is “binds”.

For the molecule QGPYLFIQDSMLDFENQTLD [Caprin1 peptide N371L (SPOT array)], in experiment [2], the binding result is on record as “binds”.

On to QGPYDFIQDSMLDFENQTLD [Caprin1 peptide N371D (SPOT array)], for which, in [2], the binding result is “binds”.

Take QGPYNFIQDCMLDFENQTLD [Caprin1 peptide S376C (SPOT array)]: in [2], the binding result is given as “binds”.

Consider HSPQYIFGDVSPDEFNQFFV [USP10 peptide F13V (SPOT array)], for which the binding result in [1] was “binds”.

As for HSPQYIFADFSPDEFNQFFV [USP10 peptide G11A (SPOT array)], in [1], the binding result is given as “binds”.

As for QGPYNFIQDSFLDFENQTLD [Caprin1 peptide M377F (SPOT array)], in experiment [2], the binding result was “binds”.
